20 variants from the RNAGym collection of RNA variant scans (doi:10.7554/elife.90254) can be followed below.

Sequences and labels used below:
B1: LINE1-full (parent)
chain: UACGUAGGUGGUUUUCCCCUGAUAGUGCUAAGGGGGCCUGGAAGUUUGGACUGGGCAGAGCUCAACACAGCGUGGCAAAGUGGCUGUGGCUAGACUGCCUCUCUGGAUUCCUCGUCACUCAGCAGGGCAUCUCUGAGAGAAAUGCC

In the series the parent is B1. Description: self-cleavage, relative activity (ratio to wild type); higher = more cleavage; in vitro, sequencing; the parent is a self-cleaving ribozyme.
For UACGUAGGUGGUUUUCCCCAGAUAGUGCUAAGGGGGCCUGGAAGUUUGGACUGGGCAGAGCUCAACACAGCGUGGCAAAGUGGCUGUGGCUAGACUGCCUCUCUGGAUUCCUCGUCACUCAGCAGGGCAUCUCUGAGAGAAACGCC, the self-cleavage stood at 0.9. Next, UACGUAGGUGGUUUUCCCCAGAUAGUGCUAAGGGGGCCUGGAAGUUUGGACUGGGCAGAGCUCAACACAGCGUGGCAAAGUGGCUGUGGCUAGACUGCCUCUCUGGAUUCCUCGUCACUCAGCAGGGCAUCUCUGAGAGAAAAGCC: 1.43; UACGUAGGUGGUUUUCCCCCGAUAGUGCUUAGGGGGCCUGGAAGUUUGGACUGGGCAGAGCUCAACACAGCGUGGCAAAGUGGCUGUGGCUAGACUGCCUCUCUGGAUUCCUCGUCACUCAGCAGGGCAUCUCUGAGAGAAAUGCC: 1.18; UACGUAGGUGGUUUUCCCCCGAUAGUGCUGAGGGGGCCUGGAAGUUUGGACUGGGCAGAGCUCAACACAGCGUGGCAAAGUGGCUGUGGCUAGACUGCCUCUCUGGAUUCCUCGUCACUCAGCAGGGCAUCUCUGAGAGAAAUGCC: 1.39. For UACGUAGGUGGUUUUCCCCCGAUAGUGCUAAGGGGGCCUGGAAGUUUGGACUGGGCGGAGCUCAACACAGCGUGGCAAAGUGGCUGUGGCUAGACUGCCUCUCUGGAUUCCUCGUCACUCAGCAGGGCAUCUCUGAGAGAAAUGCC the value was 1.19; for UACGUAGGUGGUUUUCCCCCGAUAGUGCUAAGGGGGCCUGGAAGUUUGGACUGGGCUGAGCUCAACACAGCGUGGCAAAGUGGCUGUGGCUAGACUGCCUCUCUGGAUUCCUCGUCACUCAGCAGGGCAUCUCUGAGAGAAAUGCC, 0.07; for UACGUAGGUGGUUUUCCCCCGAUUGUGCUAAGGGGGCCUGGAAGUUUGGACUGGGCAGAGCUCAACACAGCGUGGCAAAGUGGCUGUGGCUAGACUGCCUCUCUGGAUUCCUCGUCACUCAGCAGGGCAUCUCUGAGAGAAAUGCC, 1.37. Take UACGUAGGUGGUUUUCCCCCGAUGGUGCUAAGGGGGCCUGGAAGUUUGGACUGGGCAGAGCUCAACACAGCGUGGCAAAGUGGCUGUGGCUAGACUGCCUCUCUGGAUUCCUCGUCACUCAGCAGGGCAUCUCUGAGAGAAAUGCC: the self-cleavage amounted to 1.11.

As for UACGUAGGUGGUUUUCCCCCGAUAGUGCUAAGGGGGCCUGGAAGUUUGGACUGGGCAGUGCUCAACACAGCGUGGCAAAGUGGCUGUGGCUAGACUGCCUCUCUGGAUUCCUCGUCACUCAGCAGGGCAUCUCUGAGAGAAAUGCC, the self-cleavage is 0.82.

In the case of UACGUAGGUGGUUUUCCCCCGAUAGUGCUAAGGGGGCCUGGAAGUUUGGACUGGGCAGAGCUCAACACAGCGUGGCAAAGUGGCUGUGGCUAGACUGCCUCUCUGGAUUCCUCGUCCCUCAGCAGGGCAUCUCUGAGAGAAAUGCC, the self-cleavage is 1.64. Turning to UACGUAGGUGGUUUUCCCCCGAUAGUGCUAAGGGGGCCUGGAAGUUUGGACUGGGCAGAGCUCAUCACAGCGUGGCAAAGUGGCUGUGGCUAGACUGCCUCUCUGGAUUCCUCGUCACUCAGCAGGGCAUCUCUGAGAGAAAUGCC, the self-cleavage was 0.14. For UACGUAGGUGGUUUUCCCCCGAUAGUGCUAAGGGGGCCUGGGAGUUUGGACUGGGCAGAGCUCAACACAGCGUGGCAAAGUGGCUGUGGCUAGACUGCCUCUCUGGAUUCCUCGUCACUCAGCAGGGCAUCUCUGAGAGAAAUGCC the value was 1.25. Next, UACGUAGGUGGUUUUCCCCCGAUAGUGCUAAGGGGGCCUGGAAGUUUGGACUGGGCAGAGCUCAACACAGCGUGGCAAAGUGGCUGUGGCUGGACUGCCUCUCUGGAUUCCUCGUCACUCAGCAGGGCAUCUCUGAGAGAAAUGCC: 0.08.

As for UACGUAGGUGGUUUUCCCCCGAUAGUGCUAAGGGGGCCUGGAAGUUUGGACUGGGCAGAGCUCAACACAGCGUGGCAAAGUGGCUGUGGCUUGACUGCCUCUCUGGAUUCCUCGUCACUCAGCAGGGCAUCUCUGAGAGAAAUGCC, the self-cleavage was 0.72. Consider UACGUAGGUGGUUUUCCCCCGAUAGUGCUAAGGGGGCCUGGAAGUUUGGACUGGGCAGAGCUCAACGCAGCGUGGCAAAGUGGCUGUGGCUAGACUGCCUCUCUGGAUUCCUCGUCACUCAGCAGGGCAUCUCUGAGAGAAAUGCC, for which the self-cleavage is 0.74. For UACGUAGGUGGUUUUCCCCCGAUAGUGCUAAGGGGGCCUGGAAGUUUGGACUGGGCAGAGCUCAACUCAGCGUGGCAAAGUGGCUGUGGCUAGACUGCCUCUCUGGAUUCCUCGUCACUCAGCAGGGCAUCUCUGAGAGAAAUGCC, the self-cleavage was 0.15. With UACGUAGGUGGUUUUCCCCCGAUAGUGCUAAGGGGGCCUGGAAGUUUGGUCUGGGCAGAGCUCAACACAGCGUGGCAAAGUGGCUGUGGCUAGACUGCCUCUCUGGAUUCCUCGUCACUCAGCAGGGCAUCUCUGAGAGAAAUGCC, the self-cleavage amounted to 1.32.

On to UACGUAGGUGGUUUUCCCCCGAUAGUGCUAAGGGGGCCUGGAAGUUUGGACUGGGCAGAGCUCAACACAGCGUGGCAAAGUGGCUGUGGCUAGUCUGCCUCUCUGGAUUCCUCGUCACUCAGCAGGGCAUCUCUGAGAGAAAUGCC, for which the self-cleavage turned out to be 0.28. Next, UACGUAGGUGGUUUUCCCCCGAUAGUGCUAAGGGGGCCUGGAAGUUUGGACUGGGCAGAGCUCAACACAGCGUGGCAAAGUGGCUGUGGCUAGGCUGCCUCUCUGGAUUCCUCGUCACUCAGCAGGGCAUCUCUGAGAGAAAUGCC: 0.39; UACGUAGGUGGUUUUCCCCCGAUAGUGCUAAGGGGGCCUGGAAGUUUGGACUGGGCAGAGCUCAACACAGCGUGGCAGAGUGGCUGUGGCUAGACUGCCUCUCUGGAUUCCUCGUCACUCAGCAGGGCAUCUCUGAGAGAAAUGCC: 1.52.
